# Measured values reported in article PMC3410417 (The Journal of Cell Biology, 2012).
# B1: YFP-Homer3 (natural protein, UniProt Q9Z2X5 1-358, looked up)
# chain: MSTAREQPIFSTRAHVFQIDPATKRNWIPAGKHALTVSYFYDATRNVYRIISIGGAKAIINSTVTPNMTFTKTSQKFGQWADSRANTVYGLGFGSEQQLTQFAEKFQEVKEAARLAREKSQDGGELTSTALAMASHQVPPSPLVSTNGPEEKLFRSQSADAPGPTERERLKKMLSEGSVGEVQWEAEFFALQDSNQRLAGALREANAAATQWRQQLEVQRAEAEHLRQRVAELEAQVAAEPVRAGEKEATSQSVEQLEARVQTKDQEIQTLKNQSTGPREAPDTAEREETQQQVQDLETRNAELEQQLRAMESNLEEARAERERARAEVGRAAQLLDVRLFELSELREGLARLAEAAP
# Target: Myc-mGlu5a-Rluc8 (UniProt P31424-2 21-1171)
# Assay: FRET or BRET
binder,measurement,value
B1,BRET ratio in the spine before TAT-Homer1a (% of mean BRET in the shaft),364%
